Series [1] has as its system HeLa Kyoto. The series can be described thus: solubility in G1/S (NP-40 vs SDS abundance) (log2 ratio); higher = more soluble. The conditions noted are these: cell cycle stage: G1/S.
The subject of series [2] is HeLa Kyoto. Put plainly: melting temperature (median over replicates), in situ; higher = more thermally stable.
In series [3] the test system is HeLa Kyoto. Put plainly: solubility change mitosis vs G1/S (difference of NP-40 vs SDS log2 ratios) (log2 ratio difference); higher = more soluble in mitosis.
In series [4] the test system is HeLa Kyoto. Put plainly: thermal stability score vs G1/S (z-score of summed log2 fold changes over temperatures); higher = more thermally stable than in G1/S.
The mark [5] stands for this setting: cell cycle stage: early G1 (4.5 h after nocodazole release).
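For melting temperature (median over replicates), in situ in this document: HeLa Kyoto cells synchronized by double thymidine or nocodazole block, proteins quantified by TMT10plex mass spectrometry, three independent biological replicates.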
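For solubility change mitosis vs G1/S (difference of NP-40 vs SDS log2 ratios) in this document: synchronized HeLa Kyoto cells (double thymidine block for G1/S, nocodazole release for mitosis), protein amounts in NP-40 versus SDS lysates quantified by mass spectrometry, three biological replicates.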
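For solubility in G1/S (NP-40 vs SDS abundance) in this document: HeLa Kyoto cells arrested at G1/S by double thymidine block, proteins quantified by TMT10plex mass spectrometry in mild NP-40 versus SDS extracts, three biological replicates.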
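For thermal stability score vs G1/S (z-score of summed log2 fold changes over temperatures) in this document: synchronized HeLa Kyoto cells, proteins quantified by TMT10plex mass spectrometry, three biological replicates, mitosis taken 0.5 h after nocodazole release, G1/S directly after double thymidine block.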

For “MPALSTGSGSDTGLYELLAALPAQLQPHVDSQEDLTFLWDMFGEKSLHSLVKIHEKLHYYEKQSPVPILHGAAALADDLAEELQNKPLNSEIRELLKLLSKPNVKALLSVHDTVAQKNYDPVLPPMPEDIDDEEDSVKIIRLVKNREPLGATIKKDEQTGAIIVARIMRGGAADRSGLIHVGDELREVNGIPVEDKRPEEIIQILAQSQGAITFKIIPGSKEETPSKEGKMFIKALFDYNPNEDKAIPCKEAGLSFKKGDILQIMSQDDATWWQAKHEADANPRAGLIPSKHFQERRLALRRPEILVQPLKVSNRKSSGFRKSFRLSRKDKKTNKSMYECKKSDQYDTADVPTYEEVTPYRRQTNEKYRLVVLVGPVGVGLNELKRKLLISDTQHYGVTVPHTTRARRSQESDGVEYIFISKHLFETDVQNNKFIEYGEYKNNYYGTSIDSVRSVLAKNKVCLLDVQPHTVKHLRTLEFKPYVIFIKPPSIERLRETRKNAKIISSRDDQGAAKPFTEEDFQEMIKSAQIMESQYGHLFDKIIINDDLTVAFNELKTTFDKLETETHWVPVSWLHS [MPP7]”, the “solubility in G1/S (log2)” value in the series on HeLa Kyoto [1] is -0.0584. For the same sequence, the melting temperature is 47.8 °C in the series with HeLa Kyoto [2] (cell cycle stage: G1/S) and 48.5 °C in the series with HeLa Kyoto [2] (cell cycle stage: mitosis). Further, the “solubility change mitosis (log2)” value in the series with HeLa Kyoto [3] was 0.00867. The figures for the thermal stability score with HeLa Kyoto [4] (setting [5]) and in the series with HeLa Kyoto [4] (cell cycle stage: mitosis) were 0.55 and 1.76, respectively.
With “MASYPYRQGCPGAAGQAPGAPPGSYYPGPPNSGGQYGSGLPPGGGYGGPAPGGPYGPPAGGGPYGHPNPGMFPSGTPGGPYGGAAPGGPYGQPPPSSYGAQQPGLYGQGGAPPNVDPEAYSWFQSVDSDHSGYISMKELKQALVNCNWSSFNDETCLMMINMFDKTKSGRIDVYGFSALWKFIQQWKNLFQQYDRDRSGSISYTELQQALSQMGYNLSPQFTQLLVSRYCPRSANPAMQLDRFIQVCTQLQVLTEAFREKDTAVQGNIRLSFEDFVTMTASRML [PEF1]”, the “solubility in G1/S (log2)” value with HeLa Kyoto [1] was -0.126. Further, the melting temperature in the series with HeLa Kyoto [2] (cell cycle stage: G1/S) was 53.5 °C; in the series on HeLa Kyoto [2] (cell cycle stage: mitosis) it was 53.2 °C. The “solubility change mitosis (log2)” value with HeLa Kyoto [3] was 0.345. The thermal stability score in the series on HeLa Kyoto [4] (setting [5]) is -1.46; with HeLa Kyoto [4] (cell cycle stage: mitosis) it was -1.2.
For “MPSSPLRVAVVCSSNQNRSMEAHNILSKRGFSVRSFGTGTHVKLPGPAPDKPNVYDFKTTYDQMYNDLLRKDKELYTQNGILHMLDRNKRIKPRPERFQNCKDLFDLILTCEERVYDQVVEDLNSREQETCQPVHVVNVDIQDNHEEATLGAFLICELCQCIQHTEDMENEIDELLQEFEEKSGRTFLHTVCFY [SSU72]”, in the series with HeLa Kyoto [1], the “solubility in G1/S (log2)” value was found to be 0.4. Further, the melting temperature in the series on HeLa Kyoto [2] (cell cycle stage: G1/S) is 48.1 °C; in the series with HeLa Kyoto [2] (cell cycle stage: mitosis), 49.4 °C. Further, in the series on HeLa Kyoto [3], the “solubility change mitosis (log2)” value was -0.0234. For the same sequence, the thermal stability score is 0.263 in the series with HeLa Kyoto [4] (setting [5]) and -0.182 in the series with HeLa Kyoto [4] (cell cycle stage: mitosis).
Consider “MGRRSTSSTKSGKFMNPTDQARKEARKRELKKNKKQRMMVRAAVLKMKDPKQIIRDMEKLDEMEFNPVQQPQLNEKVLKDKRKKLRETFERILRLYEKENPDIYKELRKLEVEYEQKRAQLSQYFDAVKNAQHVEVESIPLPDMPHAPSNILIQDIPLPGAQPPSILKKTSAYGPPTRAVSILPLLGHGVPRLPPGRKPPGPPPGPPPPQVVQMYGRKVGFALDLPPRRRDEDMLYSPELAQRGHDDDVSSTSEDDGYPEDMDQDKHDDSTDDSDTDKSDGESDGDEFVHRDNGERDNNEEKKSGLSVRFADMPGKSRKKKKNMKELTPLQAMMLRMAGQEIPEEGREVEEFSEDDDEDDSDDSEAEKQSQKQHKEESHSDGTSTASSQQQAPPQSVPPSQIQAPPMPGPPPLGPPPAPPLRPPGPPTGLPPGPPPGAPPFLRPPGMPGLRGPLPRLLPPGPPPGRPPGPPPGPPPGLPPGPPPRGPPPRLPPPAPPGIPPPRPGMMRPPLVPPLGPAPPGLFPPAPLPNPGVLSAPPNLIQRPKADDTSAATIEKKATATISAKPQITNPKAEITRFVPTALRVRRENKGATAAPQRKSEDDSAVPLAKAAPKSGPSVPVSVQTKDDVYEAFMKEMEGLL [WBP11]”, for which the “solubility in G1/S (log2)” value with HeLa Kyoto [1] amounted to 0.135. Also, the melting temperature in the series on HeLa Kyoto [2] (cell cycle stage: G1/S) came out at 55.4 °C; in the series with HeLa Kyoto [2] (cell cycle stage: mitosis), 53.8 °C. Further, the “solubility change mitosis (log2)” value in the series on HeLa Kyoto [3] came out at 0.186. Further, the thermal stability score with HeLa Kyoto [4] (setting [5]) was -1.77; in the series with HeLa Kyoto [4] (cell cycle stage: mitosis), -3.87.
For the sequence “MAESPTEEAATAGAGAAGPGASSVAGVVGVSGSGGGFGPPFLPDVWAAAAAAGGAGGPGSGLAPLPGLPPSAAAHGAALLSHWDPTLSSDWDGERTAPQCLLRIKRDIMSIYKEPPPGMFVVPDTVDMTKIHALITGPFDTPYEGGFFLFVFRCPPDYPIHPPRVKLMTTGNNTVRFNPNFYRNGKVCLSILGTWTGPAWSPAQSISSVLISIQSLMTENPYHNEPGFEQERHPGDSKNYNECIRHETIRVAVCDMMEGKCPCPEPLRGVMEKSFLEYYDFYEVACKDRLHLQGQTMQDPFGEKRGHFDYQSLLMRLGLIRQKVLERLHNENAEMDSDSSSSGTETDLHGSLRV [UBE2Z]”, in the series with HeLa Kyoto [1], the “solubility in G1/S (log2)” value was 0.403. Also, the melting temperature in the series on HeLa Kyoto [2] (cell cycle stage: G1/S) came to 52.7 °C; in the series with HeLa Kyoto [2] (cell cycle stage: mitosis), 52.8 °C. Also, the “solubility change mitosis (log2)” value in the series on HeLa Kyoto [3] was -0.169. Moreover, the thermal stability score with HeLa Kyoto [4] (setting [5]) is -0.171; with HeLa Kyoto [4] (cell cycle stage: mitosis), -0.398.
Consider “MESYHKPDQQKLQALKDTANRLRISSIQATTAAGSGHPTSCCSAAEIMAVLFFHTMRYKSQDPRNPHNDRFVLSKGHAAPILYAVWAEAGFLAEAELLNLRKISSDLDGHPVPKQAFTDVATGSLGQGLGAACGMAYTGKYFDKASYRVYCLLGDGELSEGSVWEAMAFASIYKLDNLVAILDINRLGQSDPAPLQHQMDIYQKRCEAFGWHAIIVDGHSVEELCKAFGQAKHQPTAIIAKTFKGRGITGVEDKESWHGKPLPKNMAEQIIQEIYSQIQSKKKILATPPQEDAPSVDIANIRMPSLPSYKVGDKIATRKAYGQALAKLGHASDRIIALDGDTKNSTFSEIFKKEHPDRFIECYIAEQNMVSIAVGCATRNRTVPFCSTFAAFFTRAFDQIRMAAISESNINLCGSHCGVSIGEDGPSQMALEDLAMFRSVPTSTVFYPSDGVATEKAVELAANTKGICFIRTSRPENAIIYNNNEDFQVGQAKVVLKSKDDQVTVIGAGVTLHEALAAAELLKKEKINIRVLDPFTIKPLDRKLILDSARATKGRILTVEDHYYEGGIGEAVSSAVVGEPGITVTHLAVNRVPRSGKPAELLKMFGIDRDAIAQAVRGLITKA [TKT]”, for which the “solubility in G1/S (log2)” value in the series on HeLa Kyoto [1] turned out to be 0.148. Further, the melting temperature in the series with HeLa Kyoto [2] (cell cycle stage: G1/S) was 61.8 °C; in the series with HeLa Kyoto [2] (cell cycle stage: mitosis), 60.1 °C. In addition, the “solubility change mitosis (log2)” value in the series on HeLa Kyoto [3] is -0.0914. In addition, the figures for the thermal stability score in the series with HeLa Kyoto [4] (setting [5]) and in the series on HeLa Kyoto [4] (cell cycle stage: mitosis) were -3.36 and -2.81, respectively.

The record behind these values is the supplement of paper PMC5998384.
